Test [1] concerns the target Taxol-stabilized microtubules of mouse brain tubulin (untreated, wild-type) (mouse) (UniProt P68369). Put plainly: cell lysate-based TIRF microscopy on immobilised microtubules.
Test [2] shares this target. Nature of the test: FRAP in TIRF microscopy on immobilised microtubules.

In test [1], “YFP-Trim69 wild type (Tripartite motif protein 69) (from UniProt Q86WT6 1-500) (natural protein)” displayed a cumulative fluorescent signal on MTs of 395, a density on MTs at 10x lysate dilution of 2980, a density on MTs at 100x lysate dilution of 731 and a fluorescent intensity on microtubules of 194. Moreover, the fluorescence recovery at 6.5 min after photobleaching in test [2] was 20%.

The values above are taken from paper doi:10.1101/2025.02.06.636796.
